Consider six molecules from US7387779B2, “Anti-angiogenic proteins and fragments and methods of use thereof” (Beth Israel Deaconess Medical Center, priority 1998, dated 2008).

Series [1] deals with C-PAE cells. In words: Cell attachment assay. The format is cell-based, bovine. Here is the method:
The attachment of HUVECs to Tumstatin-coated plates in the presence of integrin subunits α1 through α6, β1, and αvβ3 integrin blocking antibody was examined. This assay was performed according to the method of Senger et al. (Senger, D. R. et al, 1997, Proc. Natl. Acad. Sci. USA 94:13612-7), with minor modification. 96-well plates were coated with either human Tumstatin, mouse laminin-1, or human Type IV collagen (Collaborative Biomedical Prods., Bedford, Mass., USA) at a concentration of 10 μg/ml overnight at 37° C. Vitronectin (Collaborative Biomed. Prods.) at a concentration of 0.5 μg/ml was then used to coat the plates. The remaining protein binding sites were blocked with 100 mg/ml of BSA (Sigma Chemical Co., St. Louis, Mo., USA) in PBS for 2 hours. HUVEC cells were grown to subconfluence (70-80%) in EGM-2 medium, gently trypsinized and resuspended in serum-free medium (1.5×10^5 cells/ml). The cells were mixed with 10 μg/ml of either mouse IgG, (control) (Life Technologies/Gibco BRL, Gaithersberg, Md., USA) or antibody (mouse monoclonal antibody to the human β1 integrin (clone P4C10) (Life Technologies/Gibco BRL); monoclonal antibody to human integrins α1 through α.6 (CHEMICON Int'l, Temecula, Calif., USA); αvβ3 integrin (clone LM609) (CHEMICON Int'l) and incubated for 15 minutes at room temperature, with gentle agitation. One hundred microliters of the cell suspension was then added to each well and incubated for 45 minutes at 37° C. Unattached cells were removed by washing, and the number of attached cells were counted after staining with methylene blue. C-PAE cells were used in separate experiments, following the above procedure.
To determine the attachment of C-PAE cells to plates coated with the Tumstatin deletion mutants, the cell attachment assay was performed as described above (see, e.g., Example 28). Rabbit antibody raised against Tum-4 was prepared as previously described (Kalluri et al., 1997, J. Clin. Invest. 99:2470-8). Goat anti-rabbit IgG antibody conjugated with horseradish peroxidase was purchased from Sigma Chemical Company (St. Louis, Mo., USA). […] Plates coated with Tum-1 (FIG. 36A) were also treated with anti-Tum-4 antibody (1:200 dilution) to block the previously reported (Shahan et al, 1999, Cancer Res. 59:4584-90) αvβ3 binding site, as well as the αvβ5 binding site.
Cell Attachment Activity: Cell attachment using endothelial cells was performed as described above. HUVEC or C-PAE cells were incubated with monoclonal anti-human integrin antibodies, control mouse IgG (10 μg/ml), or synthetic peptide, plated onto pre-coated 96-well plates, and the number of cells attaching to the plates was determined using measurement of methylene blue staining at OD655. […] CNGRC peptide was used as a control.
The cell attachment assay was performed as described above.
Tumstatin produced in 293 human embryonic kidney cells was used to coat tissue culture plates. […] PBS and BSA served as positive and negative controls, respectively.

Series [2] concerns WM-164 cells. In words: Melanoma cell proliferation, methylene blue staining. In kind it is cell-based, human. Conditions: for Relative Cell No. (%) WM-164: 3% FCS, 50 μg/ml recombinant protein. Here is the method:
In the methylene-blue staining method, 7000 cells were plated into each well of a 96-well plate, and treated as described above. Cells were then counted using the method of Oliver et al. (1989, J. Cell. Sci. 92:513-8). After 48 hours of treatment, all wells were washed with 100 μl of PBS, and the cells fixed with 10% formalin in neutral-buffered saline (Sigma Chemical Co., St. Louis, Mo., USA). The cells were then stained with 1% methylene blue (Sigma) in 0.01M borate buffer, pH 8.5. Wells were washed with 0.01M borate buffer, and the methylene blue extracted from the cells with 0.1N HCl/ethanol, and the absorbance measured in a microplate reader (Bio-Rad, Hercules, Calif., USA) at 655 nm. Polymyxin B (Sigma) at a final concentration of 5 μg/ml was used to inactivate endotoxin (Liu, S. et al., 1997, Clin. Biochem. 30:455-63).
Endothelial cell proliferation was performed by ^3H-thymidine incorporation or methylene blue staining as described above in Example 25. C-PAE cells (passages 2-4) were grown to confluence and kept contact inhibited for 48 hours. 786-O, PC-3 and WM-164 cells were used as non-endothelial controls, and were cultured as described in Example 25, above. HPE (human primary prostate epithelial cells) were cultured in keratinocyte-SFM supplemented with bovine pituitary and recombinant human EGF (Life Technologies/Gibco BRL, Gaithersburg, Md., USA). The melanoma cell line WM-164 was obtained from Dr. Meenhard Herlyn at the Wistar Institute (Philadelphia, Pa., USA), and was cultivated in 78% MCDB-153 medium, 10% L-15 medium, 10% tryptose phosphate broth, 2% FBS, and 50 units/ml insulin, as described by Herlyn et al. (1990, Adv. Cancer Res. 54:213-34).
Proliferation of endothelial cells (C-PAE cells) and WM-164 melanoma cells was assayed by methylene blue staining, as described above in Examples 25 and 34. The results are shown in FIGS. 33A and 33B, which are a pair of graphs showing the effect of increasing concentration (x-axis) of Tumstatin, Tum-1, Tum-2, Tum-3 and Tum-4 on the relative number (y-axis) of C-PAE cells (FIG. 33A) and WM-164 cells (FIG. 33B). […] Tum-4, however, did have anti-proliferative activity in this cell line. […] Only Tum-4 inhibited WM-164 melanoma cells.

The subject of series [3] is Goodpasture autoantibody. In words: Reactivity with Goodpasture autoantibody (western blotting). In kind it is binding, human. An excerpt:
Goodpasture syndrome is an autoimmune disease characterized by pulmonary hemorrhage and/or rapidly progressing glomerulonephritis, which are caused by the disruption of glomerular and alveolar basement membranes through immune injury associated with autoantibody activity against α3(IV) NC1. Recently, the most probable disease-related pathogenic epitope was identified in the N-terminal portion (Kalluri, R. et al., 1996, J. Biol. Chem. 271:9062-8; Hellmark, T. et al., 1999, Kidney Int. 55:938-44), and was then further confined within the N-terminal 40 amino acids (Hellmark, T. et al., 1999, J. Biol. Chem. 274:25862-8; Netzer, K. O. et al., 1999, J. Biol. Chem. 274:11267-74). The N-terminal Tumstatin-44-131 consists of residues 44-131 of Tumstatin, which is outside of the Goodpasture autoepitope. To further confirm that Tumstatin-44-131 would not be detected by Goodpasture autoantibody, antisera from patients with Goodpasture was used for western blotting.
Background: A western blot detects proteins with antibodies after separation by electrophoresis.

Regarding LQRFTTMPFLFCNVNDVCNF [T3], in series [1], the “attachment to T3-coated plates with anti-αv or anti-β1 integrin antibody” value is on record as “did not inhibit”, the “attachment to T3 peptide-coated plates with anti-β3 integrin antibody” value is on record as “inhibited by a preincubation with anti-β3 integrin antibody” and the “inhibition of cell attachment to Tum-4-coated plates by peptide” value is reported as “failed to inhibit”. The “inhibition of cell attachment onto Tum-5-coated plates by peptide” value in series [1] (2.5 μg/ml peptide) was “significantly inhibited”. For the same molecule, in series [1] (10 μg/ml peptide, 293-produced Tumstatin coating), the “inhibition of cell attachment to Tumstatin-coated plates by peptide” value was determined as 46.4%. In series [1] (0.1, 1.0, 10.0 μg/ml peptide), the “binding to vitronectin-coated plates (2.5 μg/ml) in the presence of peptide” value is recorded as “not inhibited”.

B1: Tum-1: residues 54 to 244 of Tumstatin, lacking the N-terminal 53 amino acids (SEQ ID NO:22) (protein)
chain: QRAHGQDLGTLGSCLQRFTTMPFLFCNVNDVCNFASRNDYSYWLSTPALMPMNMAPITGRALEPYISRCTVCEGPAIAIAVHSQTTDIPPCPHGWISLWKGFSFIMFTSAGSEGTGQALASPGSCLEEFRASPFLECHGRGTCNYYSNSYSFWLASLNPERMFRKPIPSTVKAGELEKIISRCQVCMKKRH
modifications: Tum-1 (Tumstatin N-53) (amino acids 54-244 of SEQ ID NO10)
B1: in series [2], the “effect on proliferation of WM-164 cells” value is “not affected” and the “Relative Cell No. (%) WM-164” value came to 100.7 ± 2.7%. Moreover, in series [1] (label = plate coating), the “inhibition of attachment of C-PAE cells to coated plates by αvβ3 antibody” value (shortened to “inhibition of attachment of C-PAE cells”) is 55.9% and the “inhibition of binding of C-PAE cells to coated plates by αvβ5 antibody” value (“inhibition of binding of C-PAE cells” for short) is reported as “not inhibited”. Besides, in series [3], the “detection by antisera / autoantibodies from patients with Goodpasture syndrome” value (“detection by antisera / autoantibodies” for short) is “did not bind autoantibodies”.

B2: Tum-4: residues 181 to 244 of Tumstatin (SEQ ID NO:25) (protein)
chain: EFRASPFLECHGRGTCNYYSNSYSFWLASLNPERMFRKPIPSTVKAGELEKIISRCQVCMKKRH
modifications: Tum-4 (amino acids 181-244 of SEQ ID NO10)
As for B2, the “inhibition of WM-164 melanoma cells” value in series [2] (50 μg/ml) worked out at 46.1%. Further, the “Relative Cell No. (%) WM-164” value in series [2] is recorded as 52.4 ± 3.4 %. In addition, in series [1] (label = plate coating), the “inhibition of attachment of C-PAE cells” value worked out at 62.6% and the “inhibition of binding of C-PAE cells” value was “not inhibited”.

B3: Tum-2: residues 1 to 132 of Tumstatin (SEQ ID NO:23) (protein)
chain: GLKGKRGDSGSPATWTTRGFVFTRHSQTTAIPSCPEGTVPLYSGFSFLFVQGNQRAHGQDLGTLGSCLQRFTTMPFLFCNVNDVCNFASRNDYSYWLSTPALMPMNMAPITGRALEPYISRCTVCEGPAIAI
modifications: Tum-2 (amino acids 1-132 of SEQ ID NO10)
Take B3: in series [2], the “effect on proliferation of WM-164 cells” value is “not affected” and the “Relative Cell No. (%) WM-164” value was determined as 96.2 ± 3.7%. Moreover, in series [1] (label = plate coating), the “inhibition of attachment of C-PAE cells” value was determined as 69.8% and the “inhibition of binding of C-PAE cells” value is on record as “not inhibited”.

B4: Tumstatin: NC1 domain of the α3 chain of type IV collagen, residues 1-244 (SEQ ID NO:10) (protein, listed as Homo sapiens)
chain: GLKGKRGDSGSPATWTTRGFVFTRHSQTTAIPSCPEGTVPLYSGFSFLFVQGNQRAHGQDLGTLGSCLQRFTTMPFLFCNVNDVCNFASRNDYSYWLSTPALMPMNMAPITGRALEPYISRCTVCEGPAIAIAVHSQTTDIPPCPHGWISLWKGFSFIMFTSAGSEGTGQALASPGSCLEEFRASPFLECHGRGTCNYYSNSYSFWLASLNPERMFRKPIPSTVKAGELEKIISRCQVCMKKRH
In the case of B4, in series [2], the “effect on proliferation of WM-164 cells” value is “no inhibitory effects” and the “Relative Cell No. (%) WM-164” value was determined as 100.0 ± 2.9%. In addition, the “detection by antisera / autoantibodies” value in series [3] is “detected”.

B5: Tumstatin-44-131: residues 44 to 131 of full-length Tumstatin (SEQ ID NO:33) (protein)
chain: FSFLFVQGNQRAHGQDLGTLGSCLQRFTTMPFLFCNVNDVCNFASRNDYSYWLSTPALMPMNMAPITGRALEPYISRCTVCEGPAIAI
modifications: Tumstatin-45-132 (amino acids 45-132 of SEQ ID NO10)
Regarding B5, the “effect on proliferation of WM-164 cells” value in series [2] was “not observed”. Moreover, the “attachment to coated plates in the presence of RGD peptide (CDCRGDCFC)” value in series [1] (label = plate coating) is reported as “not inhibited”. Also, the “detection by antisera / autoantibodies” value in series [3] is recorded as “failed to detect”.
